Paper PMC11009412, “Pathogenic mutations of human phosphorylation sites affect protein–protein interactions” (Nature Communications, 2024)

B1: TXNL1 (protein, UniProt O43396 2-289, looked up)
Thioredoxin-like protein 1: VGVKPVGSDPDFQPELSGAGSRLAVVKFTMRGCGPCLRIAPAFSSMSNKYPQAVFLEVDVHQCQGTAATNNISATPTFLFFRNKVRIDQYQGADAVGLEEKIKQHLENDPGSNEDTDIPKGYMDLMPFINKAGCECLNESDEHGFDNCLRKDTTFLESDCDEQLLITVAFNQPVKLYSMKFQGPDNGQGPKYVKIFINLPRSMDFEEAERSEPTQALELTEDDIKEDGIVPLRYVKFQNVNSVTIFVQSNQGEEETTRISYFTFIGTPVQATNMNDFKRVVGKKGESH
B2: TOX4 (protein, UniProt O94842 1-621, looked up)
TOX high mobility group box …: MEFPGGNDNYLTITGPSHPFLSGAETFHTPSLGDEEFEIPPISLDSDPSLAVSDVVGHFDDLADPSSSQDGSFSAQYGVQTLDMPVGMTHGLMEQGGGLLSGGLTMDLDHSIGTQYSANPPVTIDVPMTDMTSGLMGHSQLTTIDQSELSSQLGLSLGGGTILPPAQSPEDRLSTTPSPTSSLHEDGVEDFRRQLPSQKTVVVEAGKKQKAPKKRKKKDPNEPQKPVSAYALFFRDTQAAIKGQNPNATFGEVSKIVASMWDSLGEEQKQVYKRKTEAAKKEYLKALAAYKDNQECQATVETVELDPAPPSQTPSPPPMATVDPASPAPASIEPPALSPSIVVNSTLSSYVANQASSGAGGQPNITKLIITKQMLPSSITMSQGGMVTVIPATVVTSRGLQLGQTSTATIQPSQQAQIVTRSVLQAAAAAAAAASMQLPPPRLQPPPLQQMPQPPTQQQVTILQQPPPLQAMQQPPPQKVRINLQQQPPPLQIKSVPLPTLKMQTTLVPPTVESSPERPMNNSPEAHTVEAPSPETICEMITDVVPEVESPSQMDVELVSGSPVALSPQPRCVRSGCENPPIVSKDWDNEYCSNECVVKHCRDVFLAWVASRNSNTVVFVK
B3: GSTP1 (protein, UniProt P09211 2-210, looked up)
Glutathione S-transferase P: PPYTVVYFPVRGRCAALRMLLADQGQSWKEEVVTVETWQEGSLKASCLYGQLPKFQDGDLTLYQSNTILRHLGRTLGLYGKDQQEAALVDMVNDGVEDLRCKYISLIYTNYEAGKDDYVKALPGQLKPFETLLSQNQGGKTFIVGDQISFADYNLLDLLLIHEVLAPGCLDAFPLLSAYVGRLSARPKLKAFLASPEYVNLPINGNGKQ
B4: GTF2E1 (protein, UniProt P29083 2-439, looked up)
General transcription factor …: ADPDVLTEVPAALKRLAKYVIRGFYGIEHALALDILIRNSCVKEEDMLELLKFDRKQLRSVLNNLKGDKFIKCRMRVETAADGKTTRHNYYFINYRTLVNVVKYKLDHMRRRIETDERDSTNRASFKCPVCSSTFTDLEANQLFDPMTGTFRCTFCHTEVEEDESAMPKKDARTLLARFNEQIEPIYALLRETEDVNLAYEILEPEPTEIPALKQSKDHAATTAGAASLAGGHHREAWATKGPSYEDLYTQNVVINMDDQEDLHRASLEGKSAKERPIWLRESTVQGAYGSEDMKEGGIDMDAFQEREEGHAGPDDNEEVMRALLIHEKKTSSAMAGSVGAAAPVTAANGSDSESETSESDDDSPPRPAAVAVHKREEDEEEDDEFEEVADDPIVMVAGRPFSYSEVSQRPELVAQMTPEEKEAYIAMGQRMFEDLFE
B5: GTF2E2 (protein, UniProt P29084 1-291, looked up)
Transcription initiation …: MDPSLLRERELFKKRALSTPVVEKRSASSESSSSSSKKKKTKVEHGGSSGSKQNSDHSNGSFNLKALSGSSGYKFGVLAKIVNYMKTRHQRGDTHPLTLDEILDETQHLDIGLKQKQWLMTEALVNNPKIEVIDGKYAFKPKYNVRDKKALLRLLDQHDQRGLGGILLEDIEEALPNSQKAVKALGDQILFVNRPDKKKILFFNDKSCQFSVDEEFQKLWRSVTVDSMDEEKIEEYLKRQGISSMQESGPKKVAPIQRRKKPASQKKRRFKTHNEHLAGVLKDYSDITSSK
B6: TMPO (protein, UniProt P42166 2-694, looked up)
Lamina-associated polypeptide …: PEFLEDPSVLTKDKLKSELVANNVTLPAGEQRKDVYVQLYLQHLTARNRPPLPAGTNSKGPPDFSSDEEREPTPVLGSGAAAAGRSRAAVGRKATKKTDKPRQEDKDDLDVTELTNEDLLDQLVKYGVNPGPIVGTTRKLYEKKLLKLREQGTESRSSTPLPTISSSAENTRQNGSNDSDRYSDNEEGKKKEHKKVKSTRDIVPFSELGTTPSGGGFFQGISFPEISTRPPLGSTELQAAKKVHTSKGDLPREPLVATNLPGRGQLQKLASERNLFISCKSSHDRCLEKSSSSSSQPEHSAMLVSTAASPSLIKETTTGYYKDIVENICGREKSGIQPLCPERSHISDQSPLSSKRKALEESESSQLISPPLAQAIRDYVNSLLVQGGVGSLPGTSNSMPPLDVENIQKRIDQSKFQETEFLSPPRKVPRLSEKSVEERDSGSFVAFQNIPGSELMSSFAKTVVSHSLTTLGLEVAKQSQHDKIDASELSFPFHESILKVIEEEWQQVDRQLPSLACKYPVSSREATQILSVPKVDDEILGFISEATPLGGIQAASTESCNQQLDLALCRAYEAAASALQIATHTAFVAKAMQADISQAAQILSSDPSRTHQALGILSKTYDAASYICEAAFDEVKMAAHTMGNATVGRRYLWLKDCKINLASKNKLASTPFKGGTLFGGEVCKVIKKRGNKH
B7: GTF2A1 (protein, UniProt P52655 2-376, looked up)
Transcription initiation …: ANSANTNTVPKLYRSVIEDVINDVRDIFLDDGVDEQVLMELKTLWENKLMQSRAVDGFHSEEQQLLLQVQQQHQPQQQQHHHHHHHQQAQPQQTVPQQAQTQQVLIPASQQATAPQVIVPDSKLIQHMNASNMSAAATAATLALPAGVTPVQQILTNSGQLLQVVRAANGAQYIFQPQQSVVLQQQVIPQMQPGGVQAPVIQQVLAPLPGGISPQTGVIIQPQQILFTGNKTQVIPTTVAAPTPAQAQITATGQQQPQAQPAQTQAPLVLQVDGTGDTSSEEDEDEEEDYDDDEEEDKEKDGAEDGQVEEEPLNSEDDVSDEEGQELFDTENVVVCQYDKIHRSKNKWKFHLKDGIMNLNGRDYIFSKAIGDAEW

tested on: BirA*-FLAG-GATAD1 variants in Flp-In-293 cells; experiment: BioID proximity labelling of full-length GATAD1 variants (SILAC); type: cell-based, human; settings: GATAD1 WT vs S102P, forward experiment (label swap performed, sign inverted against the H/L ratio), log2 of normalized H/L ratio, significant proteins only
Excerpt: The GATAD1 gene variants were ordered in a pTwist ENTR Kozak vector from Twist Bioscience. The genes were then transferred to a pDEST_pcDNA5_BirA_FLAG_Nterm vector[97] using the Gateway Clonase II system (Thermo Fisher Scientific). The resulting vectors, pEXPR_GATAD1-WT_N-term_BirA_FLAG, pEXPR_GATAD1-S102P_N-term_BirA_FLAG, pEXPR_GATAD1-S102D_N-term_BirA_FLAG, and pEXPR_GATAD1-S102A_N-term_BirA_FLAG, were used to generate tetracycline-inducible stable Flp-In^TM-293 T-REx cells. A 6-well plate was co-transfected with 0.5 µg of the pEXPR plasmid and 1 µg of the pOG44 Flp-recombinase expression vector (Thermo Fisher Scientific) using 4.5 µg of PEI (Polysciences) as a transfection reagent. The following day, the cells were trypsinized and transferred to a 10 cm dish containing DMEM supplemented with 10% FCS and 200 µg/ml hygromycin B (Invivogen) for selection. The cells were cultured for approximately 18 days with media exchange every 3 days until visible colonies were observed. After around 18 days, the colonies were trypsinized and transferred to another 10 cm dish for further characterization and experiments.
Stable Flp-In^TM-293 cell lines expressing GATAD1 variants were cultured using SILAC light (Lys0, Arg0) and SILAC heavy (Lys8, Arg10) media, as explained in the cell culture section. After full labeling, cells were split into 15 cm dishes and were treated with 1 μg/mL tetracycline for 24 h to induce the expression of GATAD1. After the induction period, cells were incubated with 50 μM biotin overnight for proximity biotinylation. As a control, wild-type GATAD1 cells, without biotin or tetracycline addition, were used. Samples were multiplexed, as shown in Supplementary Fig. 41A with both forward and reverse label swap (n = 2). Cells were then lysed in lysis buffer (50 mM Tris-HCl pH 7.5, 150 mM NaCl, 1% Triton X-100, 1 mM EDTA, 1 mM EGTA, 0.1% SDS) with freshly added protease inhibitors and 1% sodium deoxycholate. To digest the excess DNA, 1 μl of Benzonase was added, and the samples were incubated for 20 min at 37 °C. Biotinylated proteins were enriched for 3 h at 4 °C using streptavidin-sepharose beads (GE Cat# 17-5113-01). Beads were pre-washed twice with 0.01% BSA and twice with lysis buffer. After enrichment, the beads were washed one time with lysis buffer, two times with washing buffer (50 mM HEPES-KOH pH 8.0, 100 mM KCl, 10% glycerol, 2 mM EDTA, 0.1% NP-40), and six times with 50 mM ammonium bicarbonate. Beads were resuspended in ammonium bicarbonate, and an on-bead protein digest with 1 μg of trypsin followed overnight. The next day, the digested proteins were transferred to a fresh tube and were incubated with 10 mM DTT for 30 min at 37 °C and with 55 mM iodoacetamide for 20 min at 37 °C in the dark. Samples were desalted with StageTips.
Peptides were separated using reversed-phase liquid chromatography (EASY nLC II 1200, Thermo Fisher Scientific) with self-made C18 microcolumns (20 cm long) packed with ReproSil-Pur C18-AQ 1.9 μm resin (Dr. Maisch, cat# r119.aq.0001). The chromatography system was coupled online to the electrospray ion source (Proxeon) of an Orbitrap Exploris 480 mass spectrometer (Thermo Fisher Scientific). The mobile phase consisted of buffer A (0.1% formic acid and 5% acetonitrile) and buffer B (0.1% formic acid and 80% acetonitrile). Peptides were eluted using a gradient with increasing concentrations of buffer B over 110 minutes, at a flow rate of 250 nl/min. Mass spectrometry data was acquired in data-dependent mode with settings for one full scan (resolution: 60,000; m/z range: 350–1600; normalized AGC target: 300%; maximum injection time: 10 ms), followed by top 20 MS/MS scans using higher-energy collisional dissociation (resolution: 15,000; m/z range: 200–2000; normalized AGC target: 100%; maximum injection time: 120 ms; isolation width: 1.3 m/z; normalized collision energy: 28%).
Raw files were analyzed with MaxQuant, version 2.0.3.0. […]

| Molecule | Log2_Ratio.H.L.normalized.WT_S102P_forward |
| --- | --- |
| B1 | 1.514 |
| B2 | 1.265 |
| B3 | -1.4183 |
| B4 | 1.078 |
| B5 | 1.243 |
| B6 | 1.365 |
| B7 | 1.42 |

same assay, conditions: GATAD1 WT vs S102P, forward experiment, normalized H/L ratio, significant proteins only

| Molecule | Ratio.H.L.normalized.WT_S102P_forward |
| --- | --- |
| B1 | 0.3502 |
| B2 | 0.416 |
| B3 | 2.6727 |
| B4 | 0.4738 |
| B5 | 0.4226 |
| B6 | 0.3882 |
| B7 | 0.3738 |

same assay, conditions: GATAD1 WT vs S102P, reverse experiment, log2 of normalized H/L ratio, significant proteins only

| Molecule | Log2_Ratio.H.L.normalized.WT_S102P_reverse |
| --- | --- |
| B1 | 1.19 |
| B2 | 1.044 |
| B3 | -1.579 |
| B4 | 1.217 |
| B5 | 1.178 |
| B6 | 1.174 |
| B7 | 1.224 |

same assay, conditions: GATAD1 WT vs S102P, reverse experiment, normalized H/L ratio, significant proteins only

| Molecule | Ratio.H.L.normalized.WT_S102P_reverse |
| --- | --- |
| B1 | 2.2812 |
| B2 | 2.0619 |
| B3 | 0.3348 |
| B4 | 2.3239 |
| B5 | 2.2619 |
| B6 | 2.2568 |
| B7 | 2.3357 |
